# According to US12559743, “Engineered guide scaffolds” (Scribe Therapeutics Inc.):
# B1: sgRNA scaffold 235 + spacer 12.7 ; tdTomato locus target (spacer 12.7 protospacer) (ssRNA ; dsDNA)
# RNA: ACUGGCGCUUCUAUCUGAUUACUCUGAGCGCCAUCACCAGCGACUAUGUCGUAGUGGGUAAAGCCGCUUACGGACUUCGGUCCGUAAGAGGCAUCAGAGCUGCAUUCUAGUUGUGGUUU
# DNA 1: CTGCATTCTAGTTGTGGTTT
# DNA 2: AAACCACAACTAGAATGCAG
# Target: T1, CasX 491 (engineered CasX)
# T1 chain: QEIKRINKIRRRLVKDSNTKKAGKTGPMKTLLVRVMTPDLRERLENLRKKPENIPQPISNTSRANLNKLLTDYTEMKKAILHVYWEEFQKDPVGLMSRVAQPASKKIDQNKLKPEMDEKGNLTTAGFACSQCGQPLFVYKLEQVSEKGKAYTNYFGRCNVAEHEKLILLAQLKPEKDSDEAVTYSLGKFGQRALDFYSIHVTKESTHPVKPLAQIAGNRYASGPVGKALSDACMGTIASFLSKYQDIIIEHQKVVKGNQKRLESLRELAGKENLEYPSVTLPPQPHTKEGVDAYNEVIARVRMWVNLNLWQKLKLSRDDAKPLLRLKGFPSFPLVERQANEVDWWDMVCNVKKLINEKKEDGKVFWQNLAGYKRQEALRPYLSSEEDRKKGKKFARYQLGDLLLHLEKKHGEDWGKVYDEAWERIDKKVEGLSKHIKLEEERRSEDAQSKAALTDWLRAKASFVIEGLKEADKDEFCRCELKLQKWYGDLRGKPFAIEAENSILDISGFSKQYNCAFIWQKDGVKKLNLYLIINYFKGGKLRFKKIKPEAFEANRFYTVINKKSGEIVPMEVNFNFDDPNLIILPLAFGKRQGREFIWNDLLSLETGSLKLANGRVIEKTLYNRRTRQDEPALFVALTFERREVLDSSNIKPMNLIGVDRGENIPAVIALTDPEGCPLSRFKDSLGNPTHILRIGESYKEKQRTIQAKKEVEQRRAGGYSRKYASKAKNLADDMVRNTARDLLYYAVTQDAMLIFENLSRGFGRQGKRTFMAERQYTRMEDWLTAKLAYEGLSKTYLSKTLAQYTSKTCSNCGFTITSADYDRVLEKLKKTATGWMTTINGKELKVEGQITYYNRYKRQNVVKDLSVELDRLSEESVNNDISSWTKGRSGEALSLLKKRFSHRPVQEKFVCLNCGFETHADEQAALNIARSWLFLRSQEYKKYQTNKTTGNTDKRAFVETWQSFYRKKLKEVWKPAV
# Assay: cell_activity; high dose; about 25% greater at low dose; PAM not stated for this spacer
# Description: Cells were nucleofected with the indicated doses of p59 plasmids encoding CasX 491, the scaffold, and spacer 11.30 (5' […] 3', SEQ ID NO: 17) targeting mRHO. […] Cells were nucleofected with the indicated doses of p59 plasmids encoding CasX 491, the scaffold, and spacer 12.7 (5' […]-GUUU 3', SEQ ID NO: 1146) targeting repeat elements preventing expression of the tdTomato fluorescent protein. Editing was assessed 5 days post-transfection by FACS, to quantify the fraction of tdTomato positive cells.
binder,measurement,value
B1,activity,~35 % greater than scaffold 174
